For this test, the target named is T1, TSEN15 tryptic fragment (residues 23 to 170) (human, UniProt Q8WW01 23-170).
T1 sequence (looked up): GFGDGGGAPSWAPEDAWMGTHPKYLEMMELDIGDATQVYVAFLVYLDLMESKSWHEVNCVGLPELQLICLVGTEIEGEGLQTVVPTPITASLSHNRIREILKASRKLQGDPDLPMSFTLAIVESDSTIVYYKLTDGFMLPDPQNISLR
In words: SEC. (In general: Size exclusion chromatography separates by hydrodynamic size, large species first.)

The source of these data is doi:10.1101/2020.08.03.234229 (bioRxiv, 2020).

B1: TSEN34 tryptic fragment (residues 208 to 310) (domain or fragment, human, UniProt Q9BSV6 208-310, looked up)
chain: DWPHAGRPAHELRYSIYRDLWERGFFLSAAGKFGGDFLVYPGDPLRFHAHYIAQCWAPEDTIPLQDLVAAGRLGTSVRKTLLLCSPQPDGKVVYTSLQWASLQ
In the case of B1, the binding result is “binds”.
